In patent US20200062804A1 (ADRX, published 2020):
Where “and” joins values, the source holds several entries; their conditions need not be identical. Equal entries are not always repeated. Non-standard residues stand in square brackets, D forms with d. No end group written: not given here.

T1: Nat1 (LTIITLE) (also: TFA salt)
T1 peptide: LTIITLE


Target: T1, Nat1 (LTIITLE)
Assay: cell-based or functional assay

Binder	IC50, Thiofiavin T aggregation assay
LTIKLWH	260 nM and 232 nM
IRIRHYR	14 nM
IRIRRYA	44 nM
LLIKAHR	258 nM
LLIKYHA	234 nM
LLIKYHR	248 nM and 489 nM
LRIRHVK	246 nM
IYIYHQR	269 nM
RLYIRLS	284 nM
IRIRRAA	248 nM
IRIARYR	44 nM
WTRIYLH	240 nM
WYIRLWK	262 nM
LYIRTYH	257 nM and 463 nM

Second part, the binder after the results:

IC50, Thiofiavin T aggregation assay	Binder
244 nM	[dR][dF][dY][dR][dH][dH][dR] [rfyrhhr]
267 nM	[dA][dW][dR][dW][dH][dR][dR] [awrwhrr]
239 nM	[dF][dW][dA][dW][dH][dR][dR] [fwawhrr]
245 nM	[dH][dW][dR][dW][dR][dW][dR] [hwrwrwr]
245 nM	[dK][dR][dW][dR][dH][dQ][dR] [krwrhqr]
247 nM	[dW][dW][dR][dR][dH][dH][dR] [wwrrhhr]
287 nM	WYIRTYH
43 nM	[dH][dW][dR][dW][dL][dR][dR] [hwrwlrr]
245 nM	[dF][dW][dR][dW][dH][dA][dR] [fwrwhar]
264 nM and 161 nM	[dF][dW][dR][dH][dK][dH][dR] [fwrhkhr]
252 nM	[dK][dQ][dW][dY][dH][dW][dR] [kqwyhwr]
287 nM	[dF][dA][dR][dW][dH][dR][dR] [farwhrr]
236 nM	[dR][dQ][dM][dQ][dY][dR][dR] [rqmqyrr]
